Laboratory results published in PMC13544220, “Glycemic and bodyweight effects of GIPR coding variation reflect differences in surface expression and intrinsic functional impairment” (Science Advances, 2026).

Columns and labels:
Type in all cases: cell-based, human
[1] = tested on: wild-type and variant SNAP-GIPR; assay: Surface SNAP-GIPR expression (SNAP-tag labelling) in AD293 cells; conditions: for AD293 Surface: Fig S3E, mean; for Surface SNAP-GIPR expression: sheet Fig 1C;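 as to all read-outs here: scaled to the experimental average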
In short: (§1)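 Surface GIPR is quantified from wide-field images after labelling intact transfected cells with a membrane-impermeant SNAP probe at 500 nM for 10 min at room temperature. Specific signal, corrected for nontransfected cells, is normalized to the experiment-wide average or to wild-type.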

[2] = tested on: wild-type and variant SNAP-GIPR; assay: cADDis cAMP imaging in AD293 cells, ensemble, expression-matched and per decile; conditions: Fig S3F, cADDis, mean;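 also: Ensemble cells as % of IBMX/FSK response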
In short: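 Variants and wild type ran in parallel in transfected AD293 cells carrying cADDis. Single-cell sensor intensity, with nonresponders to IBMX/FSK removed, was paired with SNAP-Surface 647 labeling to allow expression-matched analysis.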

[3] = tested on: wild-type and variant SNAP-GIPR; assay: Single-concentration GIP cAMP response by HTRF in INS-1 cells; conditions: Fig S3E, mean
Procedure: (§2) All variants were tested in parallel on each occasion to control for transfection efficiency differences between experiments.

[4] = tested on: wild-type and variant SNAP-GIPR; assay: Surface SNAP-GIPR expression (SNAP-tag labelling) in INS-1 cells; conditions: Fig 4G; Mean
In short: as §1

[5] = tested on: wild-type and variant SNAP-GIPR; assay: Single-concentration GIP cAMP response by HTRF in AD293 cells; conditions: Fig S3F, HTRF, mean;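 also: ratio to experiment-wide average response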
Procedure: as §2

[6] = tested on: wild-type and variant SNAP-GIPR; assay: Constitutive and agonist-mediated internalization, reversible SNAP-tag labelling, AD293 cells; set-up: key to Internalisation, Vehicle / Internalisation, +GIP / Internalisation, GIP-only: % internalization: residual fluorescence after Mesna vs pre-Mesna; Surface expression: unit not given here; conditions: Mean; for +GIP internalisation (100 nM) / GIP-specific internalisation (100 nM) / Constitutive internalisation (100 nM) / Surface expression: Fig 4E; for +GIP internalisation (100 nM) / GIP-specific internalisation (100 nM): GIP 100 nM; for Internalisation, +GIP / Internalisation, GIP-only / Internalisation, Vehicle: Fig S4C, AD293
In short: (§3)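 % internalization = residual specific fluorescence after Mesna / pre-Mesna value. Imaging in TNE buffer pH 8.6; second image 10 min post-Mesna.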

[7] = tested on: wild-type and variant SNAP-GIPR; assay: Constitutive and agonist-mediated internalization, reversible SNAP-tag labelling, INS-1 cells; set-up: key to Internalisation, GIP-only / Internalisation, Vehicle / Internalisation, +GIP: % internalization: residual fluorescence after Mesna vs pre-Mesna; conditions: Mean; for +GIP internalisation (100 nM) / GIP-specific internalisation (100 nM) / Constitutive internalisation (100 nM): Fig 4G; for +GIP internalisation (100 nM) / GIP-specific internalisation (100 nM): GIP 100 nM; for Internalisation, +GIP / Internalisation, GIP-only / Internalisation, Vehicle: Fig S4C, INS-1
In short: as §3

[8] = column repeated, paired with cAMP 100 nM

B1: R300W (protein, UniProt P48546 22-466, looked up, variant R300W)
Gastric inhibitory …: RAETGSKGQTAGELYQRWERYRRECQETLAAAEPPSGLACNGSFDMYVCWDYAAPNATARASCPWYLPWHHHVAAGFVLRQCGSDGQWGLWRDHTQCENPEKNEAFLDQRLILERLQVMYTVGYSLSLATLLLALLILSLFRRLHCTRNYIHINLFTSFMLRAAAILSRDRLLPRPGPYLGDQALALWNQALAACRTAQIVTQYCVGANYTWLLVEGVYLHSLLVLVGGSEEGHFRYYLLLGWGAPALFVIPWVIVRYLYENTQCWERNEVKAIWWIIWTPILMTILINFLIFIRILGILLSKLRTRQMRCRDYRLRLARSTLTLVPLLGVHEVVFAPVTEEQARGALRFAKLGFEIFLSSFQGFLVSVLYCFINKEVQSEIRRGWHHCRLRRSLGEEQRQLPERAFRALPSGSGPGEVPTSRGLSSGTLPGPGNEASRELESYC
[1]; [8]
  AD293 Surface: 0.7271
[1]; paired with cAMP 100 pM
  AD293 Surface: 0.7271
[1]; replicate 1
  Surface SNAP-GIPR expression: 0.3062
[1]; replicate 2
  Surface SNAP-GIPR expression: 0.3328
[1]; replicate 3
  Surface SNAP-GIPR expression: 0.1592
[1]; replicate 4
  Surface SNAP-GIPR expression: 0.8304
[1]; replicate 5
  Surface SNAP-GIPR expression: 0.6683
[1]; replicate 6
  Surface SNAP-GIPR expression: 0.6889
[1]; replicate 7
  Surface SNAP-GIPR expression: 0.4744
[1]; replicate 8
  Surface SNAP-GIPR expression: 0.7417
[1]; replicate 9
  Surface SNAP-GIPR expression: 0.7319
[1]; replicate 10
  Surface SNAP-GIPR expression: 0.4888
[1]; replicate 11
  Surface SNAP-GIPR expression: 0.5692
[1]; replicate 12
  Surface SNAP-GIPR expression: 0.5524
[1]; replicate 13
  Surface SNAP-GIPR expression: 0.6029
[1]; replicate 14
  Surface SNAP-GIPR expression: 0.8734
[1]; replicate 15
  Surface SNAP-GIPR expression: 0.6318
[1]; replicate 16
  Surface SNAP-GIPR expression: 0.7838
[1]; replicate 17
  Surface SNAP-GIPR expression: 0.7645
[1]; replicate 18
  Surface SNAP-GIPR expression: 0.8288
[1]; replicate 19
  Surface SNAP-GIPR expression: 0.8256
[1]; replicate 20
  Surface SNAP-GIPR expression: 0.8307
[1]; replicate 21
  Surface SNAP-GIPR expression: 0.7929
[1]; replicate 22
  Surface SNAP-GIPR expression: 0.7293
[1]; replicate 23
  Surface SNAP-GIPR expression: 0.8041
[1]; replicate 24
  Surface SNAP-GIPR expression: 0.7665
[1]; replicate 25
  Surface SNAP-GIPR expression: 0.8609
[1]; replicate 26
  Surface SNAP-GIPR expression: 0.8382
[1]; replicate 27
  Surface SNAP-GIPR expression: 0.9176
[1]; replicate 28
  Surface SNAP-GIPR expression: 0.9055
[1]; replicate 29
  Surface SNAP-GIPR expression: 1.047
[1]; replicate 30
  Surface SNAP-GIPR expression: 0.4161
[1]; replicate 31
  Surface SNAP-GIPR expression: 0.3148
[1]; replicate 32
  Surface SNAP-GIPR expression: 0.4777
[1]; replicate 33
  Surface SNAP-GIPR expression: 0.3827
[1]; replicate 34
  Surface SNAP-GIPR expression: 0.923
[1]; replicate 35
  Surface SNAP-GIPR expression: 0.8683
[1]; replicate 36
  Surface SNAP-GIPR expression: 0.9333
[1]; replicate 37
  Surface SNAP-GIPR expression: 0.8174
[1]; replicate 38
  Surface SNAP-GIPR expression: 1.012
[1]; replicate 39
  Surface SNAP-GIPR expression: 1.271
[1]; replicate 40
  Surface SNAP-GIPR expression: 1.105
[1]; replicate 41
  Surface SNAP-GIPR expression: 0.9446
[2]
  AD293 100 pM cADDis: 30.0031
  AD293 100 nM cADDis: 37.61
[3]
  INS-1 cAMP (100 nM): 1.326
[4]
  Surface expression: 0.9197
[5]
  AD293 100 pM HTRF: 0.5327
  AD293 100 nM HTRF: 1.632
[6]
  +GIP internalisation (100 nM): 0.5841
  GIP-specific internalisation (100 nM): 0.1667
  Constitutive internalisation (100 nM): 0.4174
  Surface expression: 1.0064
  Internalisation, +GIP: 57.8459
  Internalisation, GIP-only: 16.6116
  Internalisation, Vehicle: 41.2342
[7]
  +GIP internalisation (100 nM): 0.4496
  GIP-specific internalisation (100 nM): 0.1127
  Constitutive internalisation (100 nM): 0.3368
  Internalisation, +GIP: 49.27
  Internalisation, GIP-only: 12.1983
  Internalisation, Vehicle: 37.0717

B2: R183Q (protein, UniProt P48546 22-466, looked up, variant R183Q)
Gastric inhibitory …: RAETGSKGQTAGELYQRWERYRRECQETLAAAEPPSGLACNGSFDMYVCWDYAAPNATARASCPWYLPWHHHVAAGFVLRQCGSDGQWGLWRDHTQCENPEKNEAFLDQRLILERLQVMYTVGYSLSLATLLLALLILSLFRRLHCTRNYIHINLFTSFMLQAAAILSRDRLLPRPGPYLGDQALALWNQALAACRTAQIVTQYCVGANYTWLLVEGVYLHSLLVLVGGSEEGHFRYYLLLGWGAPALFVIPWVIVRYLYENTQCWERNEVKAIWWIIRTPILMTILINFLIFIRILGILLSKLRTRQMRCRDYRLRLARSTLTLVPLLGVHEVVFAPVTEEQARGALRFAKLGFEIFLSSFQGFLVSVLYCFINKEVQSEIRRGWHHCRLRRSLGEEQRQLPERAFRALPSGSGPGEVPTSRGLSSGTLPGPGNEASRELESYC
[1]; [8]
  AD293 Surface: 0.6425
[1]; paired with cAMP 100 pM
  AD293 Surface: 0.6425
[1]; replicate 1
  Surface SNAP-GIPR expression: 0.7543
[1]; replicate 2
  Surface SNAP-GIPR expression: 1.106
[1]; replicate 3
  Surface SNAP-GIPR expression: 0.9536
[1]; replicate 4
  Surface SNAP-GIPR expression: 0.232
[1]; replicate 5
  Surface SNAP-GIPR expression: 0.7423
[1]; replicate 6
  Surface SNAP-GIPR expression: 0.6069
[1]; replicate 7
  Surface SNAP-GIPR expression: 1.15
[1]; replicate 8
  Surface SNAP-GIPR expression: 0.9044
[1]; replicate 9
  Surface SNAP-GIPR expression: 0.5747
[1]; replicate 10
  Surface SNAP-GIPR expression: 0.6709
[1]; replicate 11
  Surface SNAP-GIPR expression: 0.6959
[1]; replicate 12
  Surface SNAP-GIPR expression: 0.6048
[1]; replicate 13
  Surface SNAP-GIPR expression: 0.2083
[1]; replicate 14
  Surface SNAP-GIPR expression: 0.4922
[1]; replicate 15
  Surface SNAP-GIPR expression: 0.6065
[1]; replicate 16
  Surface SNAP-GIPR expression: 0.716
[1]; replicate 17
  Surface SNAP-GIPR expression: 0.7375
[1]; replicate 18
  Surface SNAP-GIPR expression: 0.5932
[1]; replicate 19
  Surface SNAP-GIPR expression: 0.8135
[1]; replicate 20
  Surface SNAP-GIPR expression: 0.672
[1]; replicate 21
  Surface SNAP-GIPR expression: 0.7253
[1]; replicate 22
  Surface SNAP-GIPR expression: 0.7101
[1]; replicate 23
  Surface SNAP-GIPR expression: 0.6734
[1]; replicate 24
  Surface SNAP-GIPR expression: 0.6371
[1]; replicate 25
  Surface SNAP-GIPR expression: 0.6035
[1]; replicate 26
  Surface SNAP-GIPR expression: 0.6412
[1]; replicate 27
  Surface SNAP-GIPR expression: 0.6638
[1]; replicate 28
  Surface SNAP-GIPR expression: 0.5579
[1]; replicate 29
  Surface SNAP-GIPR expression: 0.6957
[1]; replicate 30
  Surface SNAP-GIPR expression: 0.2984
[1]; replicate 31
  Surface SNAP-GIPR expression: 0.1821
[1]; replicate 32
  Surface SNAP-GIPR expression: 0.3718
[1]; replicate 33
  Surface SNAP-GIPR expression: 0.3193
[1]; replicate 34
  Surface SNAP-GIPR expression: 0.6173
[1]; replicate 35
  Surface SNAP-GIPR expression: 0.7865
[1]; replicate 36
  Surface SNAP-GIPR expression: 0.6007
[1]; replicate 37
  Surface SNAP-GIPR expression: 0.5904
[1]; replicate 38
  Surface SNAP-GIPR expression: 0.7906
[1]; replicate 39
  Surface SNAP-GIPR expression: 0.7153
[1]; replicate 40
  Surface SNAP-GIPR expression: 0.6916
[1]; replicate 41
  Surface SNAP-GIPR expression: 0.6376
[2]
  AD293 100 pM cADDis: -1.0843
  AD293 100 nM cADDis: 18.64
[3]
  INS-1 cAMP (100 nM): 0.04521
[4]
  Surface expression: 0.8445
[5]
  AD293 100 pM HTRF: 0.04104
  AD293 100 nM HTRF: 0.2411
[6]
  +GIP internalisation (100 nM): 0.3247
  GIP-specific internalisation (100 nM): 0.02672
  Constitutive internalisation (100 nM): 0.298
  Surface expression: 0.6535
  Internalisation, +GIP: 49.3267
  Internalisation, GIP-only: 3.992
  Internalisation, Vehicle: 45.335
[7]
  +GIP internalisation (100 nM): 0.3116
  GIP-specific internalisation (100 nM): 0.02961
  Constitutive internalisation (100 nM): 0.282
  Internalisation, +GIP: 37.4683
  Internalisation, GIP-only: 3.708
  Internalisation, Vehicle: 33.76
